Measurements reported in patent US20140335107A1 (published 2014).

Target: T1, extracellular domain of human CD79b (huCD79becd) (human, UniProt P40259 29-159)
T1 construct: expressed in CHO cells
T1 sequence: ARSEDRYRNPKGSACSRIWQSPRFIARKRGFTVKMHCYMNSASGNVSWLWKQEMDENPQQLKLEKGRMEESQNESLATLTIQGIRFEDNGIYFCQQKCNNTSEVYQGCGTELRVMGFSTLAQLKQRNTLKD
Assay: phage selection, Fab on phage
Description: For phage selection, the extracellular domain of CD79b (huCD79becd) (2 μg/ml) was immobilized in PBS on MaxiSorp microtiter plates (Nunc) overnight at 4° C. Plates were blocked for at least 1 h using Casein Blocker (Pierce). Phage were harvested from the culture supernatant and suspended in PBS containing 0.5% BSA and 0.05% Tween 20 (PBSBT). Following addition of the phage library and phage selection for 2 h, microtiter wells were washed extensively with PBS containing 0.05% Tween 20 (PBST) to remove unbound phage and bound phage were eluted by incubating the wells with 100 mM HCl for 30 min. Selection stringency may be increased during successive rounds of selection by increasing the number of washes with PBST or by incubating with soluble huCD79becd for increasing time periods prior to elution.

| Binder | binding result |
| --- | --- |
| huMA79b graft variant with HVR-L2 of SEQ ID NO: 28 (Fab, name in Kabat numbering, V domains shown, Fab on phage) VH: EVQLVESGGGLVQPGGSLRLSCAASGYTFSSYWIEWVRQAPGKGLEWVGEILPGGGDTNYNEIFKGRFTISADTSKNTAYLQMNSLRAEDTAVYYCTRRVPVYFDYWGQGTLVTVSS VL: DIQMTQSPSSLSASVGDRVTITCKASQSVDYDGDSFLNWYQQKPGKAPKLLIYAARKLASGVPSRFSGSGSGTDFTLTISSLQPEDFATYYCQQSNEDPLTFGQGTKVEIKR | binds |
| huMA79b graft variant with HVR-H1 of SEQ ID NO: 57 (huMA79b H1-6) (Fab, V domains shown, Fab on phage; also called H1-6 mutation) VH: EVQLVESGGGLVQPGGSLRLSCAASGYPFTRYWINWVRQAPGKGLEWVGEILPGGGDTNYNEIFKGRFTISADTSKNTAYLQMNSLRAEDTAVYYCTRRVPVYFDYWGQGTLVTVSS VL: DIQMTQSPSSLSASVGDRVTITCKASQSVDYDGDSFLNWYQQKPGKAPKLLIYAASNLESGVPSRFSGSGSGTDFTLTISSLQPEDFATYYCQQSNEDPLTFGQGTKVEIK | binds |
| huMA79b graft variant with HVR-L2 of SEQ ID NO: 29 (Fab, name in Kabat numbering, V domains shown, Fab on phage) VH: EVQLVESGGGLVQPGGSLRLSCAASGYTFSSYWIEWVRQAPGKGLEWVGEILPGGGDTNYNEIFKGRFTISADTSKNTAYLQMNSLRAEDTAVYYCTRRVPVYFDYWGQGTLVTVSS VL: DIQMTQSPSSLSASVGDRVTITCKASQSVDYDGDSFLNWYQQKPGKAPKLLIYAAGILARGVPSRFSGSGSGTDFTLTISSLQPEDFATYYCQQSNEDPLTFGQGTKVEIKR | binds |
| huMA79b graft variant with HVR-L2 of SEQ ID NO: 32 (Fab, name in Kabat numbering, V domains shown, Fab on phage) VH: EVQLVESGGGLVQPGGSLRLSCAASGYTFSSYWIEWVRQAPGKGLEWVGEILPGGGDTNYNEIFKGRFTISADTSKNTAYLQMNSLRAEDTAVYYCTRRVPVYFDYWGQGTLVTVSS VL: DIQMTQSPSSLSASVGDRVTITCKASQSVDYDGDSFLNWYQQKPGKAPKLLIYAARHLKRGVPSRFSGSGSGTDFTLTISSLQPEDFATYYCQQSNEDPLTFGQGTKVEIKR | binds |
| huMA79b graft variant with HVR-L3 of SEQ ID NO: 21 (Fab, name in Kabat numbering, V domains shown, Fab on phage) VH: EVQLVESGGGLVQPGGSLRLSCAASGYTFSSYWIEWVRQAPGKGLEWVGEILPGGGDTNYNEIFKGRFTISADTSKNTAYLQMNSLRAEDTAVYYCTRRVPVYFDYWGQGTLVTVSS VL: DIQMTQSPSSLSASVGDRVTITCKASQSVDYDGDSFLNWYQQKPGKAPKLLIYAASNLESGVPSRFSGSGSGTDFTLTISSLQPEDFATYYCQQSNKDPLTFGQGTKVEIKR | binds |
| huMA79b graft variant with HVR-L2 of SEQ ID NO: 31 (Fab, name in Kabat numbering, V domains shown, Fab on phage; also called L2-38 mutation) VH: EVQLVESGGGLVQPGGSLRLSCAASGYTFSSYWIEWVRQAPGKGLEWVGEILPGGGDTNYNEIFKGRFTISADTSKNTAYLQMNSLRAEDTAVYYCTRRVPVYFDYWGQGTLVTVSS VL: DIQMTQSPSSLSASVGDRVTITCKASQSVDYDGDSFLNWYQQKPGKAPKLLIYAARKLGSGVPSRFSGSGSGTDFTLTISSLQPEDFATYYCQQSNEDPLTFGQGTKVEIKR | binds |
| huMA79b graft variant with HVR-L2 of SEQ ID NO: 33 (Fab, name in Kabat numbering, V domains shown, Fab on phage) VH: EVQLVESGGGLVQPGGSLRLSCAASGYTFSSYWIEWVRQAPGKGLEWVGEILPGGGDTNYNEIFKGRFTISADTSKNTAYLQMNSLRAEDTAVYYCTRRVPVYFDYWGQGTLVTVSS VL: DIQMTQSPSSLSASVGDRVTITCKASQSVDYDGDSFLNWYQQKPGKAPKLLIYASRYLSRGVPSRFSGSGSGTDFTLTISSLQPEDFATYYCQQSNEDPLTFGQGTKVEIKR | binds |
| huMA79b graft variant with HVR-L2 of SEQ ID NO: 30 (Fab, name in Kabat numbering, V domains shown, Fab on phage) VH: EVQLVESGGGLVQPGGSLRLSCAASGYTFSSYWIEWVRQAPGKGLEWVGEILPGGGDTNYNEIFKGRFTISADTSKNTAYLQMNSLRAEDTAVYYCTRRVPVYFDYWGQGTLVTVSS VL: DIQMTQSPSSLSASVGDRVTITCKASQSVDYDGDSFLNWYQQKPGKAPKLLIYAARKLRSGVPSRFSGSGSGTDFTLTISSLQPEDFATYYCQQSNEDPLTFGQGTKVEIKR | binds |
| huMA79b graft variant with HVR-L3 of SEQ ID NO: 20 (Fab, name in Kabat numbering, V domains shown, Fab on phage; also called SPL-5 mutation) VH: EVQLVESGGGLVQPGGSLRLSCAASGYTFSSYWIEWVRQAPGKGLEWVGEILPGGGDTNYNEIFKGRFTISADTSKNTAYLQMNSLRAEDTAVYYCTRRVPVYFDYWGQGTLVTVSS VL: DIQMTQSPSSLSASVGDRVTITCKASQSVDYDGDSFLNWYQQKPGKAPKLLIYAASNLESGVPSRFSGSGSGTDFTLTISSLQPEDFATYYCQQSNSDPLTFGQGTKVEIKR | binds |
| huMA79b graft variant with HVR-L2 of SEQ ID NO: 36 (Fab, name in Kabat numbering, V domains shown, Fab on phage) VH: EVQLVESGGGLVQPGGSLRLSCAASGYTFSSYWIEWVRQAPGKGLEWVGEILPGGGDTNYNEIFKGRFTISADTSKNTAYLQMNSLRAEDTAVYYCTRRVPVYFDYWGQGTLVTVSS VL: DIQMTQSPSSLSASVGDRVTITCKASQSVDYDGDSFLNWYQQKPGKAPKLLIYAASKLGSGVPSRFSGSGSGTDFTLTISSLQPEDFATYYCQQSNEDPLTFGQGTKVEIKR | binds |
| huMA79b graft variant with HVR-L2 of SEQ ID NO: 34 (Fab, name in Kabat numbering, V domains shown, Fab on phage) VH: EVQLVESGGGLVQPGGSLRLSCAASGYTFSSYWIEWVRQAPGKGLEWVGEILPGGGDTNYNEIFKGRFTISADTSKNTAYLQMNSLRAEDTAVYYCTRRVPVYFDYWGQGTLVTVSS VL: DIQMTQSPSSLSASVGDRVTITCKASQSVDYDGDSFLNWYQQKPGKAPKLLIYAGSKLLRGVPSRFSGSGSGTDFTLTISSLQPEDFATYYCQQSNEDPLTFGQGTKVEIKR | binds |
| huMA79b graft variant with HVR-L2 of SEQ ID NO: 35 (Fab, name in Kabat numbering, V domains shown, Fab on phage) VH: EVQLVESGGGLVQPGGSLRLSCAASGYTFSSYWIEWVRQAPGKGLEWVGEILPGGGDTNYNEIFKGRFTISADTSKNTAYLQMNSLRAEDTAVYYCTRRVPVYFDYWGQGTLVTVSS VL: DIQMTQSPSSLSASVGDRVTITCKASQSVDYDGDSFLNWYQQKPGKAPKLLIYAASNRKSGVPSRFSGSGSGTDFTLTISSLQPEDFATYYCQQSNEDPLTFGQGTKVEIKR | binds |

Target: T2, human CD79b (human, UniProt P40259 29-229)
T2 construct: endogenous CD79b on B-cell lines (BJAB, BJAB-luciferase, DoHH-2); also called PRO36249; CD79b expressed on the surface of BJAB-luciferase cells
T2 sequence: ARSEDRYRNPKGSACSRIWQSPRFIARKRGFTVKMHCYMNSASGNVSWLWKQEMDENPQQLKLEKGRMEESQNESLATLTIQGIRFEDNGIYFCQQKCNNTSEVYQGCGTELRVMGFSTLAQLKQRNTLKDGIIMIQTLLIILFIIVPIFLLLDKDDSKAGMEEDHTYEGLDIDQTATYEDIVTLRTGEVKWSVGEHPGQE
Assay: FACS on BJAB-luciferase cells
Description: The binding affinity of thio huMA79b.v18, thio huMA79b.v28 drug conjugates and thio MA79b drug conjugates to CD79b expressed on BJAB-luciferase cells was determined by FACS analysis. Further, the binding affinity of thio anti-cynoCD79b(ch10D10) drug conjugates to CD79b expressed on BJAB cells expressing cynoCD79b was determined by FACS analysis.
Briefly, approximately 1×10⁶ cells in 100 μl were contacted with varying amounts (1.0 μg, 01. μg or 0.01 μg of Ab per million cells of BJAB-luciferase cells or BJAB cells expressing cynoCD79b (for anti-cynoCD79b thioMAbs)) of one of the following anti-CD79b thioMAb drug conjugates or naked (unconjugated Ab as a control): (1) thio MA79b-LC(V205C)-MC-MMAF or (2) thio MA79b-HC(A118C)-MC-MMAF (FIGS. 29A-B, respectively); (3) thio huMA79b.v18-HC(A118C)-MC-MMAF, (4) thio huMA79b.v18-HC(A118C)-MC-vcPAB-MMAE or (5) thio huMA79b.v18-HC(A118C)-BMPEO-DM1 (FIGS. 30B-D, respectively); (6) thio huMA79b.v28-HC(A118C)-MCvcPAB-MMAE, (7) thio huMA79b.v28-HC(A118C)-BMPEO-DM1, or (8) thio huMA79b.v28-HC(A118C)-MC-MMAF (see FIGS. 31B-31D, respectively); or (9) thio anti-cynoCDb79(ch10D10)-HC(A118C)-MCvcPAB-MMAE, (10) thio anti-cynoCD79b(ch10D10)-HC(A118C)-BMPEO-DM1 or (11) thio anti-cynoCD79b(ch10D10)-HC(A118C)-MC-MMAF (see FIGS. 32B-32D, respectively). PE conjugated mouse anti-human Ig was used as the secondary detecting antibody (BD Cat#555787).

| Binder | binding result |
| --- | --- |
| thio huMA79b.v18-HC(A118C)-BMPEO-DM1 (antibody, human IgG1, kappa, BMPEO-DM1 on the engineered Cys at EU position 118 (sequential position 118; Kabat position 114), TDC; also called huMA79b.v18-HC(A118C) thioMAb-BMPEO-DM1) light: DIQLTQSPSSLSASVGDRVTITCKASQSVDYDGDSFLNWYQQKPGKAPKLLIYAASNLESGVPSRFSGSGSGTDFTLTISSLQPEDFATYYCQQSNEDPLTFGQGTKVEIKRTVAAPSVFIFPPSDEQLKSGTASVVCLLNNFYPREAKVQWKVDNALQSGNSQESVTEQDSKDSTYSLSSTLTLSKADYEKHKVYACEVTHQGLSSPVTKSFNRGEC heavy: not shown | binds |
| thio huMA79b.v28-HC(A118C)-MCvcPAB-MMAE (antibody, human IgG1, kappa, MC-val-cit-PAB-MMAE on the engineered Cys at EU position 118 (sequential position 118; Kabat position 114), TDC; also called thio huMA79b.v28-HC(A118C)-MC-val-cit-PAB-MMAE) light: DIQLTQSPSSLSASVGDRVTITCKASQSVDYEGDSFLNWYQQKPGKAPKLLIYAASNLESGVPSRFSGSGSGTDFTLTISSLQPEDFATYYCQQSNEDPLTFGQGTKVEIKRTVAAPSVFIFPPSDEQLKSGTASVVCLLNNFYPREAKVQWKVDNALQSGNSQESVTEQDSKDSTYSLSSTLTLSKADYEKHKVYACEVTHQGLSSPVTKSFNRGEC heavy: not shown | binds |
| thio huMA79b.v18-HC(A118C)-MCvcPAB-MMAE (antibody, human IgG1, kappa, MC-val-cit-PAB-MMAE on the engineered Cys at EU position 118 (sequential position 118; Kabat position 114), TDC) light: DIQLTQSPSSLSASVGDRVTITCKASQSVDYDGDSFLNWYQQKPGKAPKLLIYAASNLESGVPSRFSGSGSGTDFTLTISSLQPEDFATYYCQQSNEDPLTFGQGTKVEIKRTVAAPSVFIFPPSDEQLKSGTASVVCLLNNFYPREAKVQWKVDNALQSGNSQESVTEQDSKDSTYSLSSTLTLSKADYEKHKVYACEVTHQGLSSPVTKSFNRGEC heavy: not shown | binds |
| thio huMA79b.v18-HC(A118C)-MC-MMAF (antibody, human IgG1, kappa, MC-MMAF on the engineered Cys at EU position 118 (sequential position 118; Kabat position 114), TDC) light: DIQLTQSPSSLSASVGDRVTITCKASQSVDYDGDSFLNWYQQKPGKAPKLLIYAASNLESGVPSRFSGSGSGTDFTLTISSLQPEDFATYYCQQSNEDPLTFGQGTKVEIKRTVAAPSVFIFPPSDEQLKSGTASVVCLLNNFYPREAKVQWKVDNALQSGNSQESVTEQDSKDSTYSLSSTLTLSKADYEKHKVYACEVTHQGLSSPVTKSFNRGEC heavy: not shown | binds |
